Test results published in the Immune Epitope Database (IEDB).

Tests used:
Assay in all cases: IEDB peptide-MHC binding, purified MHC/competitive/fluorescence; filed as Kd, often an IC50 or EC50 that approximates it; ≥ and ≤ were set here for values at or beyond the usual limits of such assays
HLA-A*02:16 = target: HLA-A*02:16
HLA-B*46:01 = target: HLA-B*46:01
HLA-B*18:01 = target: HLA-B*18:01
HLA-B*15:17 = conditions: source organism: Entamoeba dispar SAW760
HLA-A*02:12 = target: HLA-A*02:12
HLA-B*27:03 = target: HLA-B*27:03
HLA-A*03:01 = conditions: source organism: Entamoeba dispar SAW760
HLA-A*02:11 = target: HLA-A*02:11
HLA-A*02:03 = target: HLA-A*02:03
HLA-A*26:01 = target: HLA-A*26:01
HLA-B*51:01 = target: HLA-B*51:01
HLA-A*02:19 = target: HLA-A*02:19
HLA-B*57:01 = target: HLA-B*57:01
HLA-B*15:01 = target: HLA-B*15:01
HLA-B*39:01 = target: HLA-B*39:01
HLA-A*69:01 = target: HLA-A*69:01
HLA-A*02:01 = target: HLA-A*02:01
HLA-A*24:03 = target: HLA-A*24:03
HLA-A*29:02 = conditions: source organism: Entamoeba dispar SAW760
HLA-A*68:02 = target: HLA-A*68:02
HLA-B*08:01 = conditions: source organism: Shigella boydii Sb227
HLA-A*31:01 = conditions: source organism: Coxiella burnetii RSA 331
[1] = source organism: Entamoeba dispar SAW760
[2] = source organism: Coxiella burnetii RSA 331

Sequence: FELLHFISS
- Kd (HLA-A*02:16; [1]): ≥ 20 µM
- Kd (HLA-B*46:01; [1]): ≥ 20 µM
- Kd (HLA-B*18:01; [1]): 564 nM
- Kd (HLA-B*15:17): ≥ 20 µM
- Kd (HLA-A*02:12; [1]): ≥ 20 µM
- Kd (HLA-B*27:03; [1]): ≥ 20 µM
- Kd (HLA-A*03:01): ≥ 20 µM
- Kd (HLA-A*02:11; [1]): ≥ 20 µM
- Kd (HLA-A*02:03; [1]): ≥ 20 µM
- Kd (HLA-A*26:01; [1]): ≥ 20 µM
- Kd (HLA-B*51:01; [1]): ≥ 20 µM
- Kd (HLA-A*02:19; [1]): ≥ 20 µM
- Kd (HLA-B*57:01; [1]): ≥ 20 µM
- Kd (HLA-B*15:01; [1]): ≥ 20 µM
- Kd (HLA-B*39:01; [1]): ≥ 20 µM
- Kd (HLA-A*69:01; [1]): ≥ 20 µM
- Kd (HLA-A*02:01; [1]): ≥ 20 µM
- Kd (HLA-A*24:03; [1]): ≥ 20 µM
- Kd (HLA-A*29:02): ≥ 20 µM
- Kd (HLA-A*68:02; [1]): ≥ 20 µM

Sequence: FLSHKIHVI
- Kd (HLA-B*08:01): 86.1 nM
- Kd (HLA-A*02:01; source organism: Shigella boydii Sb227): 0.0016 µM

Sequence: HMNKLPLAK
- Kd (HLA-A*02:16; [2]): ≥ 20 µM
- Kd (HLA-B*46:01; [2]): ≥ 20 µM
- Kd (HLA-B*18:01; [2]): ≥ 20000 nM
- Kd (HLA-A*02:12; [2]): ≥ 20 µM
- Kd (HLA-B*27:03; [2]): ≥ 20 µM
- Kd (HLA-A*02:11; [2]): ≥ 20 µM
- Kd (HLA-A*31:01): 223 nM
- Kd (HLA-A*02:03; [2]): ≥ 20 µM
- Kd (HLA-A*26:01; [2]): ≥ 20 µM
- Kd (HLA-B*51:01; [2]): ≥ 20 µM
- Kd (HLA-A*02:19; [2]): ≥ 20 µM
- Kd (HLA-B*57:01; [2]): ≥ 20 µM
- Kd (HLA-B*15:01; [2]): ≥ 20 µM
- Kd (HLA-B*39:01; [2]): ≥ 20 µM
- Kd (HLA-A*69:01; [2]): ≥ 20 µM
- Kd (HLA-A*02:01; [2]): ≥ 20 µM
- Kd (HLA-A*24:03; [2]): ≥ 20 µM
- Kd (HLA-A*68:02; [2]): ≥ 20 µM
